Values of other authors in article PMC6627431.
pKd: −log10 of the molar value.

Tests used:
[1] = target: KV1.1 (UniProt Q09470)
[2] = target: KV1.3 (UniProt P22001)
[3] = target: KV1.2 (UniProt P16389)
Chain of UniProt P16389 (P16389 whole entry): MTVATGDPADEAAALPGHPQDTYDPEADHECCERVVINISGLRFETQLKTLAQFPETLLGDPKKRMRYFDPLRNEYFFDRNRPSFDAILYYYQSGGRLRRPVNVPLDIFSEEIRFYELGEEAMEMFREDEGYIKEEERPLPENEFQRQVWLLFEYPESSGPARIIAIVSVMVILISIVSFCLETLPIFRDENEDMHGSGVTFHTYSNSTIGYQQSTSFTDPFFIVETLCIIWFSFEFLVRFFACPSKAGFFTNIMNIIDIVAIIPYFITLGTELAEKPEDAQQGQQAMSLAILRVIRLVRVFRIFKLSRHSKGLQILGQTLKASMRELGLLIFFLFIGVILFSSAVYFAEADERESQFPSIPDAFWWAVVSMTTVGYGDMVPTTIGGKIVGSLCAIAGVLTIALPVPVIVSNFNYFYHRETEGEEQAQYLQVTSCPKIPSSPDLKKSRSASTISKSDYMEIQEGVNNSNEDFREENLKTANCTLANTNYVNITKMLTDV

Chain of UniProt P22001 (P22001 whole entry): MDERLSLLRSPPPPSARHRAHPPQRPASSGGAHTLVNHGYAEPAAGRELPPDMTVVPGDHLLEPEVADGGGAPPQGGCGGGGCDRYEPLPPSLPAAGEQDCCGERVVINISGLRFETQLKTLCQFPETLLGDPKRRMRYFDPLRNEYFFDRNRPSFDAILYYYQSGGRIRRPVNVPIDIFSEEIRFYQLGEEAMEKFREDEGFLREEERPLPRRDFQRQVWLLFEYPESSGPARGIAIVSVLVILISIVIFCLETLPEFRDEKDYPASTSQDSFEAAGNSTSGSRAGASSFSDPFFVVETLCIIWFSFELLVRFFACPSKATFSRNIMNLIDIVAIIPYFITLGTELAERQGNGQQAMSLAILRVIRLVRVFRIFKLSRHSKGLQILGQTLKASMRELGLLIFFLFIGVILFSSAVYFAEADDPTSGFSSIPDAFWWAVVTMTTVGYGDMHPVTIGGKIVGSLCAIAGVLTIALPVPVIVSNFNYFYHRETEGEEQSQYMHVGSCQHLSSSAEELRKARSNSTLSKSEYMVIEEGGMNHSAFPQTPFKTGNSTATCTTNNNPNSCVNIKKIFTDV
Chain of UniProt Q09470 (Q09470 whole entry): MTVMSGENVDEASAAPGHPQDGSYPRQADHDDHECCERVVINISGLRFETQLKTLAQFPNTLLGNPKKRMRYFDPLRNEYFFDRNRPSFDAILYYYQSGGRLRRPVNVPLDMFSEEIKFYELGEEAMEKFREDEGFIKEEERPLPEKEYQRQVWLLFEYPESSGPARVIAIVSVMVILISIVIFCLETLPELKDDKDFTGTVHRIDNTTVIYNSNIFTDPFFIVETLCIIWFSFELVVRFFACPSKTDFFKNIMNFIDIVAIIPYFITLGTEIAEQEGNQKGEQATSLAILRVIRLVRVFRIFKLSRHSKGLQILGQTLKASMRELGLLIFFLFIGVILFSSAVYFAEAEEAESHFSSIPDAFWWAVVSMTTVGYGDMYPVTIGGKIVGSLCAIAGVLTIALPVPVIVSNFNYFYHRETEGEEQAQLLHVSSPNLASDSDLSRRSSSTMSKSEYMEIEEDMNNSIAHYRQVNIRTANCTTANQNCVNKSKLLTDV

**Q.** With BgK (from UniProt P29186) as the substance, how does the pKd [1] read?
**A.** 8.22

**Q.** What about the pKd [2] of the same substance?
**A.** 8.00

**Q.** And the pKd [3]?
**A.** 7.82
